Our source for the Kd, Response Amplitude and reduction in FITC signal (VLP binding to A549 cells) values is patent publication US20250223336A1.

The target of assay [1] is wild type SARS-COV-2 spike receptor binding domain (RBD), 6His-Strep-TEV-RBD construct, refolded from E. coli (SARS-COV-2) (UniProt P0DTC2).
Assay [2] has as its target SARS-COV-2 spike protein on virus-like particles (VLPs) (SARS-COV-2) (UniProt P0DTC2). The experiment in a line: cell-based or functional assay.

In general, Kd refers to a measure of binding affinity in units of concentration. As for “LCB3 de novo designed miniprotein (from Cao et al., synthesised through recombinant expression in E. coli) (designed binder)”, in assay [1], the Kd was 926 nM and the Response Amplitude was determined as 73.5. The reduction in FITC signal (VLP binding to A549 cells) in assay [2] is 84%.
